# Results published in patent US6716597B2, “Methods and products for regulating cell motility” (priority 2000, dated 2004).
# B1: EGFP-Mena: EGFP fused to full-length Mena (amino acids 1-541 of SEQ ID NO: 2), expressed from retroviral vector pMSCV (protein)
# chain: MSEQSICQARAAVMVYDDANKKWVPAGGSTGFSRVHIYHHTGNNTFRVVGRKIQDHQVVINCAIPKGLKYNQATQTFHQWRDARQVYGLNFGSKEDANVFASAMMHALEVLNSQEAAQSKVTATQDSTNLRCIFCGPTLPRQNSQLPAQVQNGPSQEELEIQRRQLQEQQRQKELERERMERERLERERLERERLERERLEQEQLERQRQEREHVERLERERLERLERERQERERERLEQLEREQVEWERERRMSNAAPSSDSSLSSAPLPEYSSCQPPSAPPPSYAKVISAPVSDATPDYAVVTALPPTSTPPTPPLRHAATRFATSLGSAFHPVLPHYATVPRPLNKNSRPSSPVNTPSSQPPAAKSCAWPTSNFSPLPPSPPIMISSPPGKATGPRPVLPVCVSSPVPQMPPSPTAPNGSLDSVTYPVSPPPTSGPAAPPPPPPPPPPPPPPPLPPPPLPPLASLSHCGSQASPPPGTPLASTPSSKPSVLPSPSAGAPASAETPLNPELGDSSASEPGLQAASQPAESPTPQGLVLG
# modifications: left off: large carriers
# B2: APPPP-mito: Control of FPPPP-mito with phenylalanine changed to alanine in each repeat; does not bind Ena/VASP proteins (protein)
# chain: VNASDAPPPPTDEELRLALPETPMLLGFNAPATSEPSSFEAPPPPTDEELRLALPETPMLLGFNAPATSEPSSFEAPPPPTEDELEIIRETASSLDSSFTRGDLASLRNAINRHSQNFSDAPPIPTEEELNGRGGRPTSEEFSSLNSGDFTDDENSETTEEEIDRLADLRDRGTGKHSRNAGFLPLNPFASSPVPSLSPKVSKISAPALISDITKKTPFKNPSQPLNVFNKKTTTKTVTKKPTPVKTAPKLAELPATKPQETVLRENKTPFIEKQAETNKQSINMPSLPVIQKEATESDKEEMKPQTEEKMVEESESANNANGKNRSAGIEEGKLIAKSAEDEKAKEEPGNHTTLILAMLAIGVFSLGAFIKIIQLRKNN
# modifications: left off: large carriers
# Assays:
# Listeria = Listeria motility in MVD7 cells expressing Mena constructs; type: cell-based, Listeria monocytogenes; conditions: high expression level, compared with GFP-Mena high (FIG. 11)
# Description: MVD7 cells were seeded onto a Bioptics dish the night before an experiment, and Listeria was also cultured overnight taking care to not over saturate the bacterial culture. MVD7 cells were then exposed to Listeria. The Bioptics dishes were centrifuged at 500×g for 3 min in a swinging bucket centrifuge to force the bacteria up against the MVD7 cells. The cells were then incubated for 1.5 hrs at 37° C. The plates were washed 3 times with media to remove bacteria not associated with cells. Bacteria were then viewed with 100x phase contrast microscopy. Time-lapse movies were recorded and speeds were quantitated with DIAS software.
# Rat2 fibroblasts = test: Time-lapse videomicroscopy random migration assay (cell speed, polarity); type: cell-based, rat; conditions: Rat2 cells expressing the construct
# Description: (§1) Cells adapted to microscopy media (Life Technologies, Rockville, Md.) as described above were trypsinized, counted, and resuspended in microscopy media at 7.14×10^3 cells/mL. 1.4 mL (10,000 cells) of this cell suspension was added to a ΔT dish (Bioptechs Inc., Butler, Pa.) that had previously been coated overnight with 10 μg/mL fibronectin (Becton Dickinson) at 4° C. and then blocked with lmg/mL cell-culture-grade BSA (Sigma, St. Louis, Mo.). Cells were allowed to attach and spread for 1 hour at 37° C. before movies were initiated. 10x phase contrast movies were 4.5 hours long with a frame taken every five minutes. A custom time-lapse collection script written in IPLabs was used to automate microscope and camera function. Light was shutter controlled. […] Cell paths were generated from the calculated centroid positions and parameters (speed and membrane flow) were calculated from the resulting path file. Speed was calculated using the Central Difference Method in DIAS, which is equivalent to a root mean squared calculation. […]
# Rat 2 cells were exposed to 0, 5 nM, 25 nM, 50 nM, or 500 nM cytochalasin D and motility was measured. One set of cells received no cytochalasin D. Other cells received a low dose of cytochalasin D (e.g. 5 nM or 25 nM) or a high dose of cytochalasin D. (e.g. 500 nM) The motility of the treated cells was assessed using the motility assay described above.
# MV^D7 cells = test: Time-lapse videomicroscopy cell speed in Ena/VASP-deficient MV^D7 fibroblasts; type: cell-based, mouse; conditions: MV^D7 cells expressing the construct vs parental MV^D7
# Description: as §1, with “controlled. Movies were considered analysis-quality if there were no focus or bubble problems and cells remained alive and dividing throughout the experiment. Once a movie met the quality control criteria, it was transferred into the image analysis program DIAS (Solltech, Inc., Oakdale, Iowa.) and cells were outlined using the Trace on Movie command.” for “controlled.”
# Rat2 cells [1] = test: Membrane flow (protrusion/retraction, shape change) from digitized movies; type: cell-based, rat; conditions: centroid fixed, independent of translocation
# Description: as §1, with “controlled. Movies were considered analysis-quality if there were no focus or bubble problems and cells remained alive and dividing throughout the experiment. Once a movie met the quality control criteria, it was transferred into the image analysis program DIAS (Solltech, Inc., Oakdale, Iowa.) and cells were outlined using the Trace on Movie command.” for “controlled.”
# Rat2 cells [2] = test: Count of vinculin- or zyxin-positive focal adhesions per cell; type: cell-based, rat; conditions: Rat2 cells after complete spreading
# Description: Rat2 cells (ATCC, Manassas, Va.) were plated and allowed to spread for 1.5-2 hours on acid-washed glass coverslips that had been coated overnight at 4° C. with 10 μg/mL fibronectin (Becton Dickinson, Franklin Lakes, N.J.). Cells were fixed with ice-cold 4% paraformaldehyde in PBS for 10 minutes at room temperature. Cells were washed twice with PBS and then permeabilized with 0.2% Triton X-100 in PBS for 3 minutes and washed two more times with PBS. Coverslips were blocked for 30 minutes in 5% BSA (RIA grade)/5% normalized Donkey serum in PBS. All subsequent antibody steps were incubated in 1% BSA/PBS for at least 30 minutes and washes were in PBS. Anti-Mena polyclonal antisera (2197, produced by Gertler laboratory) was used at 1:400, anti-VASP polyclonal antisera (M4, Alexis Corporation, San Diego, Calif.) was used at 1:400, coumarin-phallicidin (Molecular Probes Inc., Eugene, Oreg.) was used at 1:20, anti-vinculin monoclonal antibody (F7g, a kind gift from K. Burridge) was used at 1:20. All secondary antibodies (Texas Red-, Cy5-Donkey anti-rabbit or anti-mouse, Jackson ImmunoResearch Laboratories, Inc., West Grove, Pa.) were used at 1:500. Coverslips were mounted with Fluoromount G (Electron Microscopy Sciences, Fort Washington, Pa.) and viewed on a Zeiss Axiophot microscope equipped with a Deltavision imaging and software system (Applied Precision Inc., Issaquah, Wash.).
# Cell-population analysis was undertaken to explore the hypothesis that focal adhesion formation and number are unaffected by overexpression or sequestration of Ena/VASP proteins. Because cell migration depends on adhesion as well as actin polymerization at the leading edge, the various cell populations were analyzed to determine if the assembly, morphology or distribution of focal adhesions was affected. EGFP-Mena overexpressing (the “high ” population), FPPPP-mito (SEQ ID NO: 3) and control cells were each stained after complete spreading with a battery of focal adhesion markers (FAK, vinculin, paxillin, tensin, phosphotyrosine, and zyxin).
Molecule,Listeria motility (speed) (Listeria),cell polarity / polarized morphology (Rat2 fibroblasts),"cell speed (Rat2 fibroblasts; fibronectin, 4.5 hour movies)",cell speed (MV^D7 cells),average membrane flow per unit time (shape change) (Rat2 cells [1]),"Number of Focal Adhesions per Cell (±SD), Vinculin+ (Rat2 cells [2])","Number of Focal Adhesions per Cell (±SD), Zyxin+ (Rat2 cells [2])"
B1,wild-type Listeria are mobile in MVD7 cells that express EGFP-Mena,distinct lack of polarity,cell speeds decreased with increasing levels of EGFP-Mena expression,The MV^D7 cells migrated significantly faster than the MV^D7/EGFP-Mena cells,changed shape the least,72.7 ± 14.4,73.6 ± 20
B2,,,,,,81.6 ± 13.9,79.2 ± 29
